# Measured values published in publication doi:10.1101/2024.12.23.630039 (2024).
# Read-outs that look alike come from different tables or passages of the source.
# Key:
# [1] = target: T1, HLA-B*07:02 heavy chain with β2-microglobulin (MHC-I monomer, peptide groove as the binding site) (human | )
# [2] = target: T1, HLA-B*07:02 heavy chain with …; assay: predicted/cited value [23]
Binder,Kd [1] [nM],Kd [2] [nM]
RPELVRPAL [high-affinity peptide for HLA-B*07:02 (Table 1)],4.38,–
RKELVRPAL [temperature-sensitive template peptide for HLA-B*07:02 (RKELVRPAL)],–,4120
